Patent US20260000087

Target: T1, alphaS1-casein, P02662
T1 chain: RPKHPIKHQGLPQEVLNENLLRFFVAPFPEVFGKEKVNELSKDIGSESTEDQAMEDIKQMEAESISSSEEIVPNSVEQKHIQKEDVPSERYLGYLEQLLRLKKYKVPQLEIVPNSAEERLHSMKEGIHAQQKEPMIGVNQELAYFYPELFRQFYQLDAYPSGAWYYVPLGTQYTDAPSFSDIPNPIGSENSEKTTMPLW

Row | Protein | Degradation of intact alphaS1-casein (% of reference A) (% of reference A)
1 | bovine chymosin (CHY-MAX Plus from Chr. Hansen A/S) (protein) GEVASVPLTNYLDSQYFGKIYLGTPPQEFTVLFDTGSSDFWVPSIYCKSNACKNHQRFDPRKSSTFQNLGKPLSIHYGTGSMQGILGYDTVTVSNIVDIQQTVGLSTQEPGDVFTYAEFDGILGMAYPSLASEYSIPVFDNMMNRHLVAQDLFSVYMDRNGQESMLTLGAIDPSYYTGSLHWVPVTVQQYWQFTVDSVTISGVVVACEGGCQAILDTGTSKLVGPSSDILNIQQAIGATQNQYGEFDIDCDNLSYMPTVVFEINGKMYPLTPSAYTSQDQGFCTSGFQSENHSQKWILGDVFIREYYSVFDRANNLVGLAKAI | 100
2 | camel chymosin (CHY-MAX M from Chr. Hansen A/S) (protein) GKVAREPLTSYLDSQYFGKIYIGTPPQEFTVVFDTGSSDLWVPSIYCKSNVCKNHHRFDPRKSSTFRNLGKPLSIHYGTGSMEGFLGYDTVTVSNIVDPNQTVGLSTEQPGEVFTYSEFDGILGLAYPSLASEYSVPVFDNMMDRHLVARDLFSVYMDRNGQGSMLTLGAIDPSYYTGSLHWVPVTLQQYWQFTVDSVTINGVAVACVGGCQAILDTGTSVLFGPSSDILKIQMAIGATENRYGEFDVNCGNLRSMPTVVFEINGRDYPLSPSAYTSKDQGFCTSGFQGDNNSELWILGDVFIREYYSVFDRANNRVGLAKAI | 38
3 | aspartic protease or coagulant or chymosin represented by SEQ ID NO: 1 (protein) GKIAREPLTNYLDTEYFGKIQIGSPPQEFTVVFDTGSSDLWVPSVFCNSDACQNHHRFNPSKSSTFQNMNRPLSIQYGTGSMQGFLGYDTVTVSNIVVPHQTVGLSTQEPGDIFTYSEFDGILGLAYPSLASQYSVPVFDNMMKQHLVAQDLFSVYMNSQGQGSMLILGAIDPSYYVGALHWVPVTVQQYWQFTVDRITVDGVVVACDGGCQAILDTGTSLLVGPSSDILNIQTVIGATQGQYGEFDIDCGSLRSKPTVVFEINGREYPLPPTAYTNQDQGFCTSGFQGDDSQQWVLGDVFIREYYSVFDRVNNRVGLAKAI | 135
4 | aspartic protease or coagulant or chymosin represented by SEQ ID NO: 2 (protein) GKVARESLTNYLDCQYFGKIYIGTPPQEFTVVFDTGSSDLWVPSVYCNSDACQNHHRFDPSKSSTFQNMDKSLSIQYGTGSMQGLLGYDTVTVSNIVDRHQTVGLSTQEPGDVFTYSEFDGILGLAYPSLASEYSVPVFDNMMDRHLVAQDLFSVYMSRNEQGSMLTLGAIDRSYYTGSLHWIPVTVQEYWQFTVDRVTVDGVVVACDGGCQAILDTGTSMLVGPGSDIFNIQQAIGATEGQFGEFDIDCGRLSSMPTVVFEINGKKYPLPPSAYTSQDQGFCTSGFQGDYSSQQWILGDVFIREYYSVFDRASNRVGLAKAI | 71
5 | aspartic protease or coagulant or chymosin represented by SEQ ID NO: 3 (protein) GEAAKVTDEPLTNYLDSQYFGKIYIGTPPQEFTVVFDTGSSNLWVPSVYCNSDACQNHHRFNPASSTTFRSTQEPLSIQYGTGSMEGVLGYDTVTVSQIVVPDQIFGLSTQEPGEIFTYSEFDGILGLGYPSLAEDQATPVFDNMMNKNLVAQDLFSVYMSRDSQGSMLILGAIDPSYYTGSLHWVPVTEQGYWQFSVDSITVNGQVVACEGGCQAILDTGTSLLVGPSYDIANIQSIIGATQGQYGEYDINCSNLSSMPTVVVHINGRQYPLPPSAYTNQDQGLCSSGFQSEGSDQLWILGDVFIREYYSVFDRGNNRVGLATAV | 204
6 | aspartic protease represented by SEQ ID NO: 4 (protein) GEVASEPLTSYLDSQYFGKIYIGTPPQEFTVVFDTGSSDLWVPSVYCKSDACQNHQRFDPSMSSTFQNLGKPLSIQYGTGSMQGFLGYDTVTVSDIVDPQQTVGLSTQEPGDVFTYSEFDGILGLAYPSLASEYSVPVFDNMMNRHLVAQDLFSVYMDRNGQESMLTLGAIDPSYYTGSLHWVPVTLQKYWQFTVDSVTIGGVVVACDGGCQAILDTGTSMLVGPSSDILNIQMAIGATQNQYGEFDIDCGSLSSMPTVVFEINSRMYPLTPSAYTNQDQGFCTSGFQGENNSQQWILGDVFIREYYSVFDRANNRVGLAKAV | 105
